From patent US20180043014A1

Columns and labels:
[1] = target: GPNMB (CG56972) on the surface of human tumor cell lines (human) (UniProt Q14956); assay: flow cytometry, SKMEL2 cells, untreated; background control
[2] = target: GPNMB (CG56972) on the surface of human tumor cell lines (human) (UniProt Q14956); assay: flow cytometry, WM2664 cells, untreated; background control
[3] = target: GPNMB (CG56972) on the surface of human tumor cell lines (human) (UniProt Q14956); assay: flow cytometry, A375 cells, untreated, 12 h; background control
[4] = target: GPNMB (CG56972) on the surface of human tumor cell lines (human) (UniProt Q14956); assay: flow cytometry, A375 cells, untreated, 24 h; background control
[5] = target: GPNMB (CG56972) on the surface of human tumor cell lines (human) (UniProt Q14956); assay: flow cytometry, A375 cells, untreated, 48 h; background control
[6] = target: GPNMB (CG56972) on the surface of human tumor cell lines (human) (UniProt Q14956); assay: flow cytometry, SF539 (printed SF549) cells, untreated, 12 h; background control
[7] = target: GPNMB (CG56972) on the surface of human tumor cell lines (human) (UniProt Q14956); assay: flow cytometry, SF539 (printed SF549) cells, untreated, 24 h; background control
[8] = target: GPNMB (CG56972) on the surface of human tumor cell lines (human) (UniProt Q14956); assay: flow cytometry, SF539 (printed SF549) cells, untreated, 48 h; background control
[9] = target: GPNMB (CG56972) on the surface of human tumor cell lines (human) (UniProt Q14956); assay: flow cytometry on intact, non-permeabilized A375 melanoma cells, Treatment: None; primary antibody 10 ug/mL per methods, geometric mean fluorescence intensity

GPNMB (CG56972) on the surface of human tumor cell lines (human), sequence (Q14956 23-492): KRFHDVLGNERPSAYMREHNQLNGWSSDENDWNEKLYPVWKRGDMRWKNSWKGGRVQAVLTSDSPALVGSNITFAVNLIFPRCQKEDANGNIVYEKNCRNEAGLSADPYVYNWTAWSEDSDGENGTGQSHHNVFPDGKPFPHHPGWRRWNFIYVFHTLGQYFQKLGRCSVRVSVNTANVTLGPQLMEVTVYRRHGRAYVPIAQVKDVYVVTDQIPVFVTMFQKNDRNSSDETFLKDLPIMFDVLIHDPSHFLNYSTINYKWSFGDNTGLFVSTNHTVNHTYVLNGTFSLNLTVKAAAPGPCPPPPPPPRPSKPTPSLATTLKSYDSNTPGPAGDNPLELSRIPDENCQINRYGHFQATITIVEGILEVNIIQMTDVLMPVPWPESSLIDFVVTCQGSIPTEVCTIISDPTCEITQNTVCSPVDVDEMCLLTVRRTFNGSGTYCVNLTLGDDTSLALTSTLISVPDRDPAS

- GeoMean [1]: 6.9
- GeoMean [2]: 7.3
- GeoMean [3]: 7.4
- GeoMean [4]: 7.5
- GeoMean [5]: 7.8
- GeoMean [6]: 8.2
- GeoMean [7]: 8.7
- GeoMean [8]: 9.5
- GeoMean [9]: 8.4
Substance: unrelated human IgG2 isotype control monoclonal antibody
